Biological target: HgcR (D-2-hydroxyglutarate catabolic regulator), PP4494 (Pseudomonas putida KT2440)
Assay: SEC

How did the stoichiometry N turn out when “HgcR (D-2-hydroxyglutarate catabolic regulator), PP4494 (natural protein)” was run?
Its stoichiometry N is 2.
